Results as given in publication PMC10521239 (Protein Science : A Publication of the Protein Society, 2023).

Biological target: HPC4 tagged human fIX without the gamma-carboxyglutamic (GLA) domain, wild type (Homo sapiens)
Test: ELISA

Sequence of HPC4 tagged human fIX without the gamma-carboxyglutamic (GLA) domain, wild type (Homo sapiens) (P00740 93-461): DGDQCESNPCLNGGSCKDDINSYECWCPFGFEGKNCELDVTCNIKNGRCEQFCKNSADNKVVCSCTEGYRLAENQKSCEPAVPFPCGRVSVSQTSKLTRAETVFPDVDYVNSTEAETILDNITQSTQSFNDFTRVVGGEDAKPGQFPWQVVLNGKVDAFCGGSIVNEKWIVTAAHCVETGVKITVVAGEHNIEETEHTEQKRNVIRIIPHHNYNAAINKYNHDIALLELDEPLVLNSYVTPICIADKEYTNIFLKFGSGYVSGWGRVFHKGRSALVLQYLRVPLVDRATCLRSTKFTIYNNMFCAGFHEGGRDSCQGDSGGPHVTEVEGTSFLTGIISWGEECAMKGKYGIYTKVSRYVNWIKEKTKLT

binding result: binds
B1: anti-fIXa NN-8895 full-length mAb (antibody, V domains shown)
VH: EVQLVESGGGLVQPGRSLRLSCAASGFIFDDYAMHWVRQVPGKGLEWVSGISWNSDNIGYVDSVKGRFTISRDNAKNSLYLQMNSLRIEDTALYYCAKAFGSGSYYNGFDYWGQGALVTVSS
VL: DIQMTQSPSTLSASAGDRVTISCRASQSISSWLAWYQQKPGKAPKLLIYKASSLESGVPSRFSGSGSGTEFTLTISSLQPDDFATYYCQEYNSYIRTFGQGTKVEIK
